Data taken from the supplement of paper PMC10065799, “High-throughput profiling of sequence recognition by tyrosine kinases and SH2 domains using bacterial peptide display” (eLife, 2023).

How the values were obtained:
[1] = tested on: AncSZ; assay: phosphorylation enrichment, bacterial display (enrichment ratio); higher = better substrate or ligand; peptides without Tyr show the background
[2] = biological target: EPHB1 (UniProt P54762); assay: as above
[3] = biological target: EPHB2 (UniProt P29323); assay: as above
[4] = biological target: FGFR1 (UniProt P11362); assay: as above
[5] = biological target: FGFR3 (UniProt P22607); assay: as above
[6] = tested on: Fer (mouse); assay: as above
[7] = biological target: Fes (UniProt P07332); assay: as above
[8] = biological target: Fyn (UniProt P06241); assay: as above
[9] = biological target: Hck (UniProt P08631); assay: as above
[10] = biological target: Jak2 (UniProt O60674); assay: as above
[11] = biological target: MERTK (UniProt Q12866); assay: as above
[12] = tested on: c-Abl (mouse); assay: as above
[13] = tested on: c-Src; assay: as above
[14] = biological target: Grb2 SH2 (UniProt P62993); assay: SH2 binding enrichment of the phosphorylated peptide, bacterial display (enrichment ratio); higher = better substrate or ligand; peptides without Tyr show the background
[15] = biological target: SHP2-C SH2; assay: as above
[16] = biological target: c-Src SH2; assay: as above
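Throughout, for SH2 binding enrichment of the phosphorylated peptide, bacterial display: peptide library displayed on the E. coli surface as eCPX fusions, selected cells deep-sequenced, score is each peptide's frequency after selection divided by its frequency in the input.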
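Throughout, for phosphorylation enrichment, bacterial display: 11-residue human phosphosite peptides and single-mutation variants displayed on the E. coli surface, counted by deep sequencing, each peptide's frequency after selection divided by its frequency in the unselected input library; frequency after pTyr selection over input frequency; kinase dosed for 20-30% of maximal phosphorylation in three min.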

Sequence of Jak2 (O60674 whole entry, looked up): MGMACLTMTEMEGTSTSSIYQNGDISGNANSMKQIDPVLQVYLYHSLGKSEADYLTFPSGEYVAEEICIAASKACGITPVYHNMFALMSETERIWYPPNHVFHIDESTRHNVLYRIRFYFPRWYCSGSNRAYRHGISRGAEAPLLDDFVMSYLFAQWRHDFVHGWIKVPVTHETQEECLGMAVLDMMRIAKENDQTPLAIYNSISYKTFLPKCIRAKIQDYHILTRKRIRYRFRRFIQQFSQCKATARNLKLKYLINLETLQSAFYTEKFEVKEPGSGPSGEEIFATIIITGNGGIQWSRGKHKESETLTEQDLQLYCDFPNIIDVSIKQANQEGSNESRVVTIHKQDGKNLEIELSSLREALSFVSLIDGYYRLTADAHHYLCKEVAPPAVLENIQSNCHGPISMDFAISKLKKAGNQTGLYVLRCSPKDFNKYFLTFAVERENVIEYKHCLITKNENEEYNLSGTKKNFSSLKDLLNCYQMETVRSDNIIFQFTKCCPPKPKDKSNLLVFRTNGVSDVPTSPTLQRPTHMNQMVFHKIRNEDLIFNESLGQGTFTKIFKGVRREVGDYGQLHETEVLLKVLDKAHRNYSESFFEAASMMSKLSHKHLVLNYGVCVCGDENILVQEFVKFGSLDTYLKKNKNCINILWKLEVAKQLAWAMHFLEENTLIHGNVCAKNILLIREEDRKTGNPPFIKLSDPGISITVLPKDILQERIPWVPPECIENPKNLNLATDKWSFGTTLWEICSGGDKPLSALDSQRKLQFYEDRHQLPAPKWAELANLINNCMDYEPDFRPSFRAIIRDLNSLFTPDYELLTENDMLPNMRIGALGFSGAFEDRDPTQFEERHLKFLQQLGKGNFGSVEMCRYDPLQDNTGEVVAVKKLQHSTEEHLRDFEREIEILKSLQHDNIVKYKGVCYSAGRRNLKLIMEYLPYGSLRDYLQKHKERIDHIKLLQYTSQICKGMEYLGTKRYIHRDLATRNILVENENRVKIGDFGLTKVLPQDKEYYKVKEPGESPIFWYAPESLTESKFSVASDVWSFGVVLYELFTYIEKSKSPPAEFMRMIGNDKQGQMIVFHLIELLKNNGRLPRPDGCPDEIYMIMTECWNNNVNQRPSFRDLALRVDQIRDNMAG
Sequence of FGFR1 (P11362 whole entry, looked up): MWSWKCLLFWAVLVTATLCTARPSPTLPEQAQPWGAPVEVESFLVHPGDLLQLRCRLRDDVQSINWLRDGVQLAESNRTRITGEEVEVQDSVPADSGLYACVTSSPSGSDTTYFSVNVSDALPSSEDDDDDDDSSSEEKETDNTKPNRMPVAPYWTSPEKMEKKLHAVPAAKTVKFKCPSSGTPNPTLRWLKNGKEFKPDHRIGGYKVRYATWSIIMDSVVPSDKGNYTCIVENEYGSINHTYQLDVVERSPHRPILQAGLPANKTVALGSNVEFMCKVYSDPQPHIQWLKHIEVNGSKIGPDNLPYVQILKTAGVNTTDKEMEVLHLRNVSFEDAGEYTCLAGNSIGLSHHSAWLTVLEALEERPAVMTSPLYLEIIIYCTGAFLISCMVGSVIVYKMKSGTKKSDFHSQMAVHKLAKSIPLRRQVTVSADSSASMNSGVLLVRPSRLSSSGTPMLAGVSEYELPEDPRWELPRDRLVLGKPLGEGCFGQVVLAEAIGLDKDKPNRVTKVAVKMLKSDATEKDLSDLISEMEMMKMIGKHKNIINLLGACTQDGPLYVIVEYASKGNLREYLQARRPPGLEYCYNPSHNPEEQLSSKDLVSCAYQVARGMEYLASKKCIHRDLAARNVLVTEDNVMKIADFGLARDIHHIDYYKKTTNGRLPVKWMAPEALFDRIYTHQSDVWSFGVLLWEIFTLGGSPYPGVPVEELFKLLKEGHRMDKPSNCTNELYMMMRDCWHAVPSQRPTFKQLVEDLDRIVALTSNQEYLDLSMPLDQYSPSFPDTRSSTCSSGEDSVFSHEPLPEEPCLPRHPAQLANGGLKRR
Sequence of Hck (P08631 whole entry, looked up): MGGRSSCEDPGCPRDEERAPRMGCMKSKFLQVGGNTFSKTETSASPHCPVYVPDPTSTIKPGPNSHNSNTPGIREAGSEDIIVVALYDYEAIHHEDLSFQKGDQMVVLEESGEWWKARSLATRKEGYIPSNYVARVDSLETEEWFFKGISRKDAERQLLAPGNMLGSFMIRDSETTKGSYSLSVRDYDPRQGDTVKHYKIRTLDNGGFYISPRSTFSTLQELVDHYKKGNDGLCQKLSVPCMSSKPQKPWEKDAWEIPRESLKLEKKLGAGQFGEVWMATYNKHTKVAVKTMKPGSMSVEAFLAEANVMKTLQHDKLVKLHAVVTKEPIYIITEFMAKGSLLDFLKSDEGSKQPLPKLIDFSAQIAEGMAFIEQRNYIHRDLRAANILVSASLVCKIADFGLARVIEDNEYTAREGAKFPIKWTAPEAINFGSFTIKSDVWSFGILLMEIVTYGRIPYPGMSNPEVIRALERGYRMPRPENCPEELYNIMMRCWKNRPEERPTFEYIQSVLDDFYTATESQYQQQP
Sequence of FGFR3 (P22607 whole entry, looked up): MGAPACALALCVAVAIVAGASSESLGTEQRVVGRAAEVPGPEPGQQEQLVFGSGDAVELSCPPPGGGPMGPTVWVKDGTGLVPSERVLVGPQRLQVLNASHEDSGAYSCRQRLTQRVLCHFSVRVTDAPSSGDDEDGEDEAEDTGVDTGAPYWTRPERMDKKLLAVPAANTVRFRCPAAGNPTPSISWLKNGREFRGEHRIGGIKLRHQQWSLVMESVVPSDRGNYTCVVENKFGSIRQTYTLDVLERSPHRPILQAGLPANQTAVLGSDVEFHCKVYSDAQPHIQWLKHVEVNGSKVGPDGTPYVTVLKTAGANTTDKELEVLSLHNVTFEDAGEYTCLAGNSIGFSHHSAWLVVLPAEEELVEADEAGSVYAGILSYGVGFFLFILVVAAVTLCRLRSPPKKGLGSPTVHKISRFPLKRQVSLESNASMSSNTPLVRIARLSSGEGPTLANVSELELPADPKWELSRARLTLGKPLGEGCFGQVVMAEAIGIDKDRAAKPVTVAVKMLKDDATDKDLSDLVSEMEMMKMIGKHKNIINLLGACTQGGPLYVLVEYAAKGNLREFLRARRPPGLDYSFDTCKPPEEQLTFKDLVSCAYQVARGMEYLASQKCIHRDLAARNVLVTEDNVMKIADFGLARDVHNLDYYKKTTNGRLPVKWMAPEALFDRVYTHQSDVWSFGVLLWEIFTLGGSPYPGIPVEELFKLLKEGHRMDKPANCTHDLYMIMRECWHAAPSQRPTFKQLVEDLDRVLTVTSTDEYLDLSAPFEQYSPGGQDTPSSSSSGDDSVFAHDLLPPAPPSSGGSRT
Sequence of Fyn (P06241 whole entry, looked up): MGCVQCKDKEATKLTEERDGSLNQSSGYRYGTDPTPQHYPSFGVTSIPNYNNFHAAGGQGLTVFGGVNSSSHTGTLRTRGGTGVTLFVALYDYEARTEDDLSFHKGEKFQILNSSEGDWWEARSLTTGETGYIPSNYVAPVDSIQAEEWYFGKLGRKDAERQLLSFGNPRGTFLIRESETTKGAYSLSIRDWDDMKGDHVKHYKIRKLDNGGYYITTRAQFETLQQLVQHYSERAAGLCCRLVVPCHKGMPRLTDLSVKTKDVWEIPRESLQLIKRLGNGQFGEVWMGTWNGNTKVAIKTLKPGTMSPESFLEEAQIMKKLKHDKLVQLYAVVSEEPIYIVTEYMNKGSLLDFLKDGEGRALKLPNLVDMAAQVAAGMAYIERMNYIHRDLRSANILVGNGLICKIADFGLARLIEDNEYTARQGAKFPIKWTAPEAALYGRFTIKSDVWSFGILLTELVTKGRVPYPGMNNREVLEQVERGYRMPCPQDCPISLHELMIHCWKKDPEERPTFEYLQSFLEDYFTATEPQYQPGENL
Sequence of Fes (P07332 whole entry, looked up): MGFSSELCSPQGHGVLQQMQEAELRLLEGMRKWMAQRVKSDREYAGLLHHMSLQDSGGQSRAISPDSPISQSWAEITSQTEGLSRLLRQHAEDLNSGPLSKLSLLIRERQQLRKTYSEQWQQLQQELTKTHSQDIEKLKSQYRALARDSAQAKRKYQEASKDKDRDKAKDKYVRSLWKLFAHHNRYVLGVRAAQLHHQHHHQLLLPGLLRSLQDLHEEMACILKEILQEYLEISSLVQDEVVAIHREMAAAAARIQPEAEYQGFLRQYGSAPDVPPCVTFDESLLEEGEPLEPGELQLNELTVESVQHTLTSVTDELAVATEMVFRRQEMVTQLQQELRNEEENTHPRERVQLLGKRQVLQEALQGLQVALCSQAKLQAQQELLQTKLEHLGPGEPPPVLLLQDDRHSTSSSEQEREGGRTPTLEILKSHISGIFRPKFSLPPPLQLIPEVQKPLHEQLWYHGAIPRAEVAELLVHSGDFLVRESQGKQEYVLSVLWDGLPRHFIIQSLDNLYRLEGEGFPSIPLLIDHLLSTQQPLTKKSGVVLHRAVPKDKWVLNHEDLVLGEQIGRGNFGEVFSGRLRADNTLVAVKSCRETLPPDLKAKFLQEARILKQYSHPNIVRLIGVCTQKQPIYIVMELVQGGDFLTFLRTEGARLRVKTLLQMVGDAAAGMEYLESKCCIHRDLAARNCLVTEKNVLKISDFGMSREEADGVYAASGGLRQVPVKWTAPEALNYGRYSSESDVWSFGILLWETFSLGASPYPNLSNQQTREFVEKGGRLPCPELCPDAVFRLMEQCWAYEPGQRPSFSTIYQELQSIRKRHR

SH2 binding enrichment [14]	SH2 binding enrichment [15]	SH2 binding enrichment [16]	Sequence	phosphorylation enrichment [1]	phosphorylation enrichment [2]	phosphorylation enrichment [3]	phosphorylation enrichment [4]	phosphorylation enrichment [5]	phosphorylation enrichment [6]	phosphorylation enrichment [7]	phosphorylation enrichment [8]	phosphorylation enrichment [9]	phosphorylation enrichment [10]	phosphorylation enrichment [11]	phosphorylation enrichment [12]	phosphorylation enrichment [13]
0.778	0.598	0.665	INSLKYAYNIS [EIF2B5_Y583]	0.476	0.403	0.368	0.425	0.474	0.392	0.762	0.414	0.401	0.569	0.398	0.421	0.412
0.767	0.86	0.485	HKANEYFPVVI [ADAMTS18_Y764_L769I_YF]	1.35	0.762	0.806	11.8	5.96	0.874	0.973	0.594	0.569	2.38	0.663	1.01	0.625
0.958	0.989	0.538	PELIDYGKLWK [ACTN1_Y193_R197W]	1.31	0.718	0.683	0.535	0.766	0.531	1.26	0.601	0.393	0.761	0.522	0.912	0.59
0.952	0.655	0.607	FSTPPYLLEAA [BRIP1_Y921_S919P_YF]	0.95	0.521	0.601	0.63	0.707	0.579	1	0.619	0.434	0.909	0.497	0.76	0.669
2.24	0.706	0.444	KVGNEYVNKGQ [MYH7_Y410_T412N]	0.581	0.337	0.553	0.492	0.391	0.404	0.541	0.412	0.327	0.424	0.373	0.422	0.428
0.769	0.662	0.519	IIEDPYFGNDF [ACP1_Y132_S137F_YF]	1.36	0.664	0.695	0.791	0.908	0.757	1.43	1.11	0.823	1.3	0.487	0.871	2.98
0.859	0.783	0.429	GIVEDYRPPLY [ACVRL1_Y421_F425L]	0.727	0.382	0.482	0.387	0.608	0.399	0.918	0.455	0.382	0.675	0.393	0.59	0.412
0.998	0.825	0.938	YRDMDYRSYPH [RBM10_Y41_R46H]	0.567	0.578	0.486	3.25	2.1	0.487	0.64	0.412	0.457	0.621	0.357	0.5	0.376
0.895	0.677	0.275	PGDGEYFTLQI [TP53_Y327_L323G]	2.91	0.895	0.892	10.5	7.71	0.651	1.57	3.54	1.95	4.13	0.705	1.75	4.02
0.758	0.559	0.5	IIQRAYRGHLL [SCN1A_Y1926_R1928G]	0.483	0.38	0.327	0.447	0.628	0.387	0.671	0.429	0.428	0.555	0.47	0.437	0.432
0.899	0.776	1.94	TAGEPYHDIRF [BAP1_Y223]	0.821	0.555	0.446	1.54	1.29	0.523	0.744	0.498	0.489	0.64	0.426	0.429	0.619
0.539	0.476	0.391	VREIRYQGGNR [VWF_Y1570]	0.597	0.329	0.511	0.378	0.382	0.402	0.653	0.421	0.42	0.968	0.522	0.615	0.495
0.704	0.609	0.411	YRASYYRRGDR [LTK_Y677]	0.653	0.446	0.535	0.511	0.431	0.496	0.485	0.534	0.494	0.436	0.603	0.693	0.598
0.825	0.542	0.843	QRALLYEDALY [UNC13D_Y56]	2.17	12.3	12.3	0.861	0.975	17.1	2.05	7.7	7.73	1.08	5.12	1.04	6.09
1.29	1.45	0.966	PLLLSYYLIKW [NUP160_Y773]	1.33	1.14	0.947	4.29	3.73	0.633	1.83	0.358	0.628	4.49	1.68	1.2	0.854
1.25	0.603	0.639	EEQKKYYNAMK [SCN5A_Y1494]	0.67	0.451	0.492	0.509	0.535	0.377	0.771	0.458	0.392	0.674	0.355	0.525	0.384
